From publication PMC9175492

How the values were obtained:
[1] = biological target: LgBit, an 18-kDa subunit of NanoLuc; assay: split reporter
[2] = biological target: Kelch domain of Kelch-like ECH-associated protein 1 (Keap1); assay: fluorescence polarisation

Row | fold induction of luminescence at 10 μM [1] [fold] | IC50 [2] [nM] | Binder
1 | 20 |  | VSGWRLFKKIS [HiBit, an 11-residue peptide derived from NanoLuc]
2 |  | 14 | GQLDPETGEFL (here or on the partner: cyclic peptide) [cyclic peptidyl inhibitor P1, Cyclo(…)]
